Values joined by “and” are separate entries in the source; they are usually repeats but may differ in a detail not shown here. Identical values can stand only once.

This is an account of results in patent US9926369B2, “Methods for treating hepatocellular cancer by administering an anti-Ang-2 antibody” (Regeneron Pharmaceuticals, Inc., priority 2009, dated 2018).

The target in one assay is T1, hAng-2-WT (Homo sapiens, UniProt O15123).
T1 construct: wild-type human Ang-2 (hAng-2-WT)
T1 sequence (O15123 19-496): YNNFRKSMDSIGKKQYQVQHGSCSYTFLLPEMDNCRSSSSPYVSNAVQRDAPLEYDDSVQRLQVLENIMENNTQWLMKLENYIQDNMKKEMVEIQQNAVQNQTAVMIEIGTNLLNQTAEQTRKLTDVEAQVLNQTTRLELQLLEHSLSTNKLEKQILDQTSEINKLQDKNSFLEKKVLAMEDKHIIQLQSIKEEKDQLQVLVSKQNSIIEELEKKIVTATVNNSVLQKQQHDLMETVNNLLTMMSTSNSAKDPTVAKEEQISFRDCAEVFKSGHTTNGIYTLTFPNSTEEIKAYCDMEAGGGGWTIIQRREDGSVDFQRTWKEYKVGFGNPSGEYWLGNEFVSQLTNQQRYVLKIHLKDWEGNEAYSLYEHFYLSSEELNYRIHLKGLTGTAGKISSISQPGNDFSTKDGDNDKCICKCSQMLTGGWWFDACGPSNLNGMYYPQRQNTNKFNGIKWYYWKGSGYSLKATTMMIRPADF
In words: SPR binding to full-length wild-type human Ang-2 (preferential binding). The protocol: Binding experiments (plasmon resonance assays) were conducted to ascertain whether selected antibodies bound to both Ang-2 and Ang-1 or if they preferentially bound to Ang-2 only. Each selected antibody or control construct was captured at a flow rate of 40 μL/min for 1 minute on a goat anti-human IgG polyclonal antibody surface created through direct chemical coupling to a BIACORE™ chip to form a captured antibody surface. Full-length wild-type human Ang-1 or Ang-2 at a concentration of 25 nM or 0.78 nM were injected over the captured antibody surface at a flowrate of 60 μL/min for 3 minutes, and antigen-antibody dissociation was monitored in real time for 20 minutes at either 25° C. or 37° C.
(In general: SPR reads the build-up and loss of mass on a sensor chip optically.)

Assay [1] relates to Monkey Ang-2FD-hFc binding to hTie-2-mFc. The assay is described as follows: ELISA blocking of monkey Ang-2FD-hFc binding to hTie-2-mFc. Format: biochemical. The following applies: 16.67 nM antibody; 2 nM Ang-2FD-hFc. The protocol: Tie-2 is a natural receptor for Ang-2. Anti-Ang-2 antibodies were tested for their ability to block Ang-2 binding to human Tie-2 (hTie-2). hTie-2-mFc (a chimeric construct consisting of human Tie-2 conjugated to mouse IgG; SEQ ID NO:525) was coated onto 96-well plates at a concentration of 2 μg/ml and incubated overnight followed by washing four times in wash buffer (PBS with 0.05% Tween-20). The plate was then blocked with PBS (Irvine Scientific, Santa Ana, Calif.) containing 0.5% BSA (Sigma-Aldrich Corp., St. Louis, Mo.) for one hour at room temperature. In a separate plate, purified anti-Ang-2 antibodies, at a starting concentration of 50 nM, were serially diluted by a factor of three across the plate. Human, mouse or monkey Ang-2FD protein conjugated to human IgG (Ang-2FD-hFc) were added to final concentrations of 2 nM, 8 nM, or 2 nM respectively and incubated for one hour at room temperature. The antibody/Ang-2FD-Fc mixture was then added to the plate containing hTie-2-mFc and incubated for one hour at room temperature. Detection of Ang-2FD-hFc bound to hTie-2-mFc protein was determined with Horse-Radish Peroxidase (HRP) conjugated to a-human IgG antibody (Jackson Immuno Research Lab, West Grove, Pa.) and developed by standard colorimetric response using tetramethylbenzidine (TMB) substrate (BD Biosciences, San Jose, Calif.). Absorbance was read at OD450 for 0.1 sec.
Monkey Ang-2FD-hFc binding to hTie-2-mFc, sequence (as listed by the source): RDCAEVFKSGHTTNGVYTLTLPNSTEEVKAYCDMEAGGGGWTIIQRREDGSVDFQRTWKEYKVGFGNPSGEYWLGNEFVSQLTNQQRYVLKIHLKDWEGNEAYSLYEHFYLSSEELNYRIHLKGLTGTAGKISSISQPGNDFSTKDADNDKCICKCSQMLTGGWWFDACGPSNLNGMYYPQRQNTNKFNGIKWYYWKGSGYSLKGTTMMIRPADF
Monkey Ang-2FD-hFc binding to hTie-2-mFc, sequence (Q02763 with tags, fused parts or gaps Q346P/T695I partner limits assumed): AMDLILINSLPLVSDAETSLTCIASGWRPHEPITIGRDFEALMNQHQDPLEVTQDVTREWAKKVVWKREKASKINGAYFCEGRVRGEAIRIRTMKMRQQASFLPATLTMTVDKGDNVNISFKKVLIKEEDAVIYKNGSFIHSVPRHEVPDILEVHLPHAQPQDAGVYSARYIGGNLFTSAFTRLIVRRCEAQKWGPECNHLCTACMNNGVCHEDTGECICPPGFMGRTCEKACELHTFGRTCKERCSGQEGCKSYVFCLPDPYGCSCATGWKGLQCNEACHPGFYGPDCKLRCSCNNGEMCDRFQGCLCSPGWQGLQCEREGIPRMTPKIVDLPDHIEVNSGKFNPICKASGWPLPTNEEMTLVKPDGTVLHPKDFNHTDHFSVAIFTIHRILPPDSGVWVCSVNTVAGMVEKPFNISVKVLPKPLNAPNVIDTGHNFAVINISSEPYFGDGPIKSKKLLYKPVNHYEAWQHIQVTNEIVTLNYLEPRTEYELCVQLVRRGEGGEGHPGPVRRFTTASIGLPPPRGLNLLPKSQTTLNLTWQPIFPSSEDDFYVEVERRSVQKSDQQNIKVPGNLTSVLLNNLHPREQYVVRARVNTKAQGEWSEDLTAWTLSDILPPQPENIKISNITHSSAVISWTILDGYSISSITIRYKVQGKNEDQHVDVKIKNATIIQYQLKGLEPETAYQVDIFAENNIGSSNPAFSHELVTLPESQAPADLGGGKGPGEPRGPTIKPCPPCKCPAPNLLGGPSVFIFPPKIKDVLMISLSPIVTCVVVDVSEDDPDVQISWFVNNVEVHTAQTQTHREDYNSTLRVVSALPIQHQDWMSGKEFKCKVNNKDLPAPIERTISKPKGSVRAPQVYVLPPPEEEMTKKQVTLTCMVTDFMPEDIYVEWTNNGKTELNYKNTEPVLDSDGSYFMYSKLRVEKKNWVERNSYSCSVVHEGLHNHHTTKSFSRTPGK
In general terms: In an ELISA, binding on a coated surface is turned into a signal by an enzyme label.

The target in assay [2] is T2, hAng-2-WT binding to hTie-2-mFc (Homo sapiens, UniProt O15123).
T2 sequence (O15123 19-496): T1 sequence (O15123 19-496)
In words: Biosensor SPR blocking of hAng-2-WT binding to hTie-2-mFc-ecto surface. It is filed as biochemical. The following applies: 25 nM hAng-2-WT. The protocol: The foregoing experiment was repeated using different amounts of Ang-2 blockers and controls. In particular, a human Tie-2 full-length extracellular domain construct (hTie-2-mFc-ecto) was amine-coupled on a BIACORE™ chip to create a receptor-coated surface. Selected anti-hAng-2 antibodies and control constructs (50 or 150 nM) were mixed with hAng-2-WT (25 nM) followed by 60 minutes incubation at 25° C. to allow antibody-antigen binding to reach equilibrium. The equilibrated solutions were injected over the receptor surfaces at 10 μL/min for 5 minutes at 25° C. To evaluate the ability of the selected anti-hAng-2 antibodies to block Ang-1-WT binding to hTie-2, a similar procedure was followed except the antibodies were tested at three concentrations (50, 100 or 1000 nM) and incubated with 10 nM of hAng-1-WT. Changes in resonance units (RU) due to the binding of the Ang-2-WT or hAng-1-WT to hTie-2-mFc were determined. An irrelevant antibody with no binding to either angiopoietin was included in these experiments to establish the 0% blocking baseline, and a human Tie-2-mFc construct was used as a positive control for blocking. Results are summarized in Tables 21 (hAng-1 applied to a hTie-2 surface) and 22 (hAng-2 applied to a hTie-2 surface).

In a further assay the target is WT Ang-2FD-mFc construct (Homo sapiens, UniProt O15123). In words: Ang-2FD-mFc point mutant binding experiment (SPR), wild-type. The conditions noted are these: WT hAng-2FD-mFc captured; antibody/peptibody at 100 nM; 25° C. An excerpt:
To further characterize binding between hAng2 and anti-hAng2 mAbs of the invention, seven variant hAng2-FD-mFc proteins were generated, each containing a single point mutation. Amino acids selected for mutation were based on the difference in sequence between hAng-2 and hAng-1 in the region that interacts with hTie-2 (FIG. 1). In particular, amino acids within the fibrinogen-like domain (FD) of Ang-2 which are believed to interact with Tie-2 based on crystal structure analysis, but which differ from the corresponding amino acid in Ang-1, were individually mutated to the corresponding hAng-1 residue. The results of this example indicate the amino acid residues of hAng-2 with which the Ang-2 preferential binding antibodies interact.
In this experiment, each of the seven hAng-2FD-mFc mutant proteins were captured (˜147-283 RU) on an anti-mouse-Fc surface created through direct chemical coupling to a BIACORE™ chip. Then each Ang-2 antibody (or peptibody, as the case may be) at 100 nM was injected over the captured mFc-tagged hAng-2FD protein surface at a flowrate of 50 μl/min for 180 sec, and the dissociation of variant hAng2-FD-mFc and antibody was monitored in real time for 20 min at 25° C.

WT Ang-2FD-mFc construct, sequence (O15123 with tags, fused parts or gaps): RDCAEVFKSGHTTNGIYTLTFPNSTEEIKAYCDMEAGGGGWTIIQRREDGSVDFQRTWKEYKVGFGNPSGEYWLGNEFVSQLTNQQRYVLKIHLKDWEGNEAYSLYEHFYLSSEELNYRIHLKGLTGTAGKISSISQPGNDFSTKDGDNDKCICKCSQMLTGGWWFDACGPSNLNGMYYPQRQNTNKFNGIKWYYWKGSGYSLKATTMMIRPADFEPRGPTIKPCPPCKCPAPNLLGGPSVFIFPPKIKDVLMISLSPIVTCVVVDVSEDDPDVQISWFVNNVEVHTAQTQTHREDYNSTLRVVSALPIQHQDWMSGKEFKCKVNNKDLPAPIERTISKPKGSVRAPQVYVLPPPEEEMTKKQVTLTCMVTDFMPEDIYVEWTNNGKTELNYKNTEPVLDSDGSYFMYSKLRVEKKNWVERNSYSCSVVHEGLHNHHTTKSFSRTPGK

With “H1H685P: human anti-Ang-2 antibody, HCVR/LCVR SEQ ID NOs 18/20; also referred to as mAb1 [Antibody H1H685P]”, the “kd, binding to hAng-2-WT” value with hAng-2-WT (25° C.) was 1.6e-05 s⁻¹ and 8.5e-06 s⁻¹. Further, the “kd, binding to hAng-2-WT” value in the assay with hAng-2-WT (37° C.) is 3.76e-05 s⁻¹ and 2.16e-05 s⁻¹. Besides, in assay [1], the “Percent Blocking of Ang-2FD Binding to Tie-2, Monkey Ang-2FD-hFc” value was 62.2%. Moreover, in assay [2] (50 nM antibody or control), the “Percent of Neg. Ctrl Binding (hAng-2 WT)” value stood at 4.3% and the “Specific Bound RU (hAng-2 WT)” value is reported as 12 RU. Besides, in assay [2] (150 nM antibody or control), the “Percent of Neg. Ctrl Binding (hAng-2 WT)” value was 4.3% and the “Specific Bound RU (hAng-2 WT)” value is reported as 12 RU. Besides, in the assay with WT Ang-2FD-mFc construct, the Kd is 0.0223 nM and the RU is recorded as 210.70 RU.

By Kd is commonly meant the concentration at which binding is half-saturated.
